Measured values published in patent US20200317779A1.
Substitutions are numbered along the chain they refer to.

B1: C02 (antibody, human IgG1, lambda, L234A L235A, V domains shown)
VH: EVQLVESGGGLVQPGGSLKLSCAASGFTFNTYAMNWVRQASGKGLEWVGRIRSKYNNYATYYADSVKDRFTISRDDSQSTAYLQMNSLKTEDTAVYYCVRHGNFGNSYVSWFAYWGQGTLVTVSS
VL: QAVVTQEPSLTVSPGGTVTLTCRSSTGAVTTSNYANWFQQKPGQAPRTLIYGTNKRAPWTPARFSGSLLGDKAALTLSGAQPEDEAEYYCALWYSNLWVFGGGTKLTVLG
B2: E06 (antibody, human IgG1, lambda, L234A L235A, V domains shown)
VH: B1 VH with G49A, Q78K, S79N
VL: B1 VL with T48G
B3: C09 (antibody, human IgG1, lambda, L234A L235A, V domains shown)
VH: B1 VH
VL: B1 VL with F38V, D71G
B4: C14 (antibody, human IgG1, lambda, L234A L235A, V domains shown)
VH: B1 VH
VL: B1 VL with F38V, T48G
B5: D06 (antibody, human IgG1, lambda, L234A L235A, V domains shown)
VH: B1 VH with A81L
VL: B1 VL with T48G
B6: C04 (antibody, human IgG1, lambda, L234A L235A, V domains shown)
VH: B1 VH
VL: B1 VL with Y51G
B7: D01 (antibody, human IgG1, lambda, L234A L235A, V domains shown)
VH: B1 VH with A81L
VL: B1 VL with D71G
B8: A04 (antibody, human IgG1, lambda, L234A L235A, V domains shown)
VH: B1 VH with Q78K, S79N
VL: B1 VL with Y51G
B9: C11 (antibody, human IgG1, lambda, L234A L235A, V domains shown)
VH: B1 VH
VL: B1 VL with F38V, Y51G, D71G
B10: C10 (antibody, human IgG1, lambda, L234A L235A, V domains shown)
VH: B1 VH
VL: B1 VL with F38V
B11: D11 (antibody, human IgG1, lambda, L234A L235A, V domains shown)
VH: B1 VH with A81L
VL: B1 VL with F38V, Y51G, D71G
B12: D04 (antibody, human IgG1, lambda, L234A L235A, V domains shown)
VH: B1 VH with A81L
VL: B1 VL with Y51G
B13: E01 (antibody, human IgG1, lambda, L234A L235A, V domains shown)
VH: B1 VH with G49A, Q78K, S79N
VL: B1 VL with D71G
B14: A01 (antibody, human IgG1, lambda, L234A L235A, V domains shown)
VH: B1 VH with Q78K, S79N
VL: B1 VL with D71G
B15: C13 (antibody, human IgG1, lambda, L234A L235A, V domains shown)
VH: B1 VH
VL: B1 VL with F38V, T48G, D71G
B16: C12 (antibody, human IgG1, lambda, L234A L235A, V domains shown)
VH: B1 VH
VL: B1 VL with F38V, Y51G
B17: D03 (antibody, human IgG1, lambda, L234A L235A, V domains shown)
VH: B1 VH with A81L
VL: B1 VL with Y51G, D71G
B18: E14 (antibody, human IgG1, lambda, L234A L235A, V domains shown)
VH: B1 VH with G49A, Q78K, S79N
VL: B1 VL with F38V, T48G
B19: E10 (antibody, human IgG1, lambda, L234A L235A, V domains shown)
VH: B1 VH with G49A, Q78K, S79N
VL: B1 VL with F38V
B20: C06 (antibody, human IgG1, lambda, L234A L235A, V domains shown)
VH: B1 VH
VL: B1 VL with T48G
B21: E12 (antibody, human IgG1, lambda, L234A L235A, V domains shown)
VH: B1 VH with G49A, Q78K, S79N
VL: B1 VL with F38V, Y51G
B22: A05 (antibody, human IgG1, lambda, L234A L235A, V domains shown)
VH: B1 VH with Q78K, S79N
VL: B1 VL with T48G, D71G
B23: E03 (antibody, human IgG1, lambda, L234A L235A, V domains shown)
VH: B1 VH with G49A, Q78K, S79N
VL: B1 VL with Y51G, D71G
B24: D09 (antibody, human IgG1, lambda, L234A L235A, V domains shown)
VH: B1 VH with A81L
VL: B1 VL with F38V, D71G
B25: D12 (antibody, human IgG1, lambda, L234A L235A, V domains shown)
VH: B1 VH with A81L
VL: B1 VL with F38V, Y51G
B26: D05 (antibody, human IgG1, lambda, L234A L235A, V domains shown)
VH: B1 VH with A81L
VL: B1 VL with T48G, D71G
B27: D02 (antibody, human IgG1, lambda, L234A L235A, V domains shown)
VH: B1 VH with A81L
VL: B1 VL
B28: C05 (antibody, human IgG1, lambda, L234A L235A, V domains shown)
VH: B1 VH
VL: B1 VL with T48G, D71G
B29: E11 (antibody, human IgG1, lambda, L234A L235A, V domains shown)
VH: B1 VH with G49A, Q78K, S79N
VL: B1 VL with F38V, Y51G, D71G
B30: E05 (antibody, human IgG1, lambda, L234A L235A, V domains shown)
VH: B1 VH with G49A, Q78K, S79N
VL: B1 VL with T48G, D71G
B31: D14 (antibody, human IgG1, lambda, L234A L235A, V domains shown)
VH: B1 VH with A81L
VL: B1 VL with F38V, T48G
B32: E13 (antibody, human IgG1, lambda, L234A L235A, V domains shown)
VH: B1 VH with G49A, Q78K, S79N
VL: B1 VL with F38V, T48G, D71G
B33: E09 (antibody, human IgG1, lambda, L234A L235A, V domains shown)
VH: B1 VH with G49A, Q78K, S79N
VL: B1 VL with F38V, D71G
B34: E08 (antibody, human IgG1, lambda, L234A L235A, V domains shown)
VH: B1 VH with G49A, Q78K, S79N
VL: B1 VL with T48G, Y51G
B35: C03 (antibody, human IgG1, lambda, L234A L235A, V domains shown)
VH: B1 VH
VL: B1 VL with Y51G, D71G
B36: E02 (antibody, human IgG1, lambda, L234A L235A, V domains shown)
VH: B1 VH with G49A, Q78K, S79N
VL: B1 VL
B37: E07 (antibody, human IgG1, lambda, L234A L235A, V domains shown)
VH: B1 VH with G49A, Q78K, S79N
VL: B1 VL with T48G, Y51G, D71G
B38: A06 (antibody, human IgG1, lambda, L234A L235A, V domains shown)
VH: B1 VH with Q78K, S79N
VL: B1 VL with T48G
B39: D13 (antibody, human IgG1, lambda, L234A L235A, V domains shown)
VH: B1 VH with A81L
VL: B1 VL with F38V, T48G, D71G
B40: D10 (antibody, human IgG1, lambda, L234A L235A, V domains shown)
VH: B1 VH with A81L
VL: B1 VL with F38V
B41: E04 (antibody, human IgG1, lambda, L234A L235A, V domains shown)
VH: B1 VH with G49A, Q78K, S79N
VL: B1 VL with Y51G

Each binder was assayed against recombinant human CD3ε/δ heterodimer (human) (UniProt P07766) (assay: ELISA, coated CD3ε/δ).
Sequence of recombinant human CD3ε/δ heterodimer (human) (P07766 23-126, stated change not applied, chain 1 of 2): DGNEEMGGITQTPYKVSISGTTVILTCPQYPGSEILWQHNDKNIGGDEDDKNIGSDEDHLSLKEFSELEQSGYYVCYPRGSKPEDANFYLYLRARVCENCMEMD
Sequence of recombinant human CD3ε/δ heterodimer (human) (P04234 22-105, stated change not applied, chain 2 of 2, further chain): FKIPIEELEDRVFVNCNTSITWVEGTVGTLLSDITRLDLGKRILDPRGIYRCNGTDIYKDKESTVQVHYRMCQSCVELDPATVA

Q: How did the Absorbance (450 nm) turn out when B1 was run?
A: 0.099

Q: With B2 as the binder, how does the Absorbance (450 nm) read?
A: 0.112

Q: Which Absorbance (450 nm) does the source give for B3 here?
A: 0.109

Q: How did the Absorbance (450 nm) turn out when B4 was run?
A: 0.107

Q: With B5 as the binder, how does the Absorbance (450 nm) read?
A: 0.136

Q: With B6 as the binder, how does the Absorbance (450 nm) read?
A: 0.093

Q: For B7, which Absorbance (450 nm) is on record?
A: 0.136

Q: B8 was tested. Which Absorbance (450 nm) did it give?
A: 0.098

Q: For B9, which Absorbance (450 nm) is on record?
A: 0.288

Q: How did the Absorbance (450 nm) turn out when B10 was run?
A: 0.096

Q: With B11 as the binder, how does the Absorbance (450 nm) read?
A: 0.138

Q: With B12 as the binder, how does the Absorbance (450 nm) read?
A: 0.091

Q: Which Absorbance (450 nm) does the source give for B13 here?
A: 0.1

Q: With B14 as the binder, how does the Absorbance (450 nm) read?
A: 0.152

Q: With B15 as the binder, how does the Absorbance (450 nm) read?
A: 0.179

Q: For B16, which Absorbance (450 nm) is on record?
A: 0.087

Q: Which Absorbance (450 nm) does the source give for B17 here?
A: 0.159

Q: B18 was tested. Which Absorbance (450 nm) did it give?
A: 0.105

Q: B19 was tested. Which Absorbance (450 nm) did it give?
A: 0.083

Q: How did the Absorbance (450 nm) turn out when B20 was run?
A: 0.108

Q: For B21, which Absorbance (450 nm) is on record?
A: 0.088

Q: Which Absorbance (450 nm) does the source give for B22 here?
A: 0.167

Q: With B23 as the binder, how does the Absorbance (450 nm) read?
A: 0.134

Q: B24 was tested. Which Absorbance (450 nm) did it give?
A: 0.122

Q: Which Absorbance (450 nm) does the source give for B25 here?
A: 0.095

Q: How did the Absorbance (450 nm) turn out when B26 was run?
A: 0.121

Q: Which Absorbance (450 nm) does the source give for B27 here?
A: 0.15

Q: B28 was tested. Which Absorbance (450 nm) did it give?
A: 0.107

Q: With B29 as the binder, how does the Absorbance (450 nm) read?
A: 0.098

Q: Which Absorbance (450 nm) does the source give for B30 here?
A: 0.085

Q: How did the Absorbance (450 nm) turn out when B31 was run?
A: 0.149

Q: For B32, which Absorbance (450 nm) is on record?
A: 0.139

Q: Which Absorbance (450 nm) does the source give for B33 here?
A: 0.096

Q: B34 was tested. Which Absorbance (450 nm) did it give?
A: 0.074

Q: B35 was tested. Which Absorbance (450 nm) did it give?
A: 0.14

Q: Which Absorbance (450 nm) does the source give for B36 here?
A: 0.095

Q: How did the Absorbance (450 nm) turn out when B37 was run?
A: 0.109

Q: With B38 as the binder, how does the Absorbance (450 nm) read?
A: 0.14

Q: Which Absorbance (450 nm) does the source give for B39 here?
A: 0.569

Q: B40 was tested. Which Absorbance (450 nm) did it give?
A: 0.117

Q: With B41 as the binder, how does the Absorbance (450 nm) read?
A: 0.087

Each binder was assayed against recombinant cynomolgus monkey CD3ε/δ heterodimer (cynomolgus monkey) (UniProt Q95LI5) (assay: ELISA, coated CD3ε/δ).
Sequence of recombinant cynomolgus monkey CD3ε/δ heterodimer (cynomolgus monkey) (Q95LI5 22-117, stated change not applied, chain 1 of 2): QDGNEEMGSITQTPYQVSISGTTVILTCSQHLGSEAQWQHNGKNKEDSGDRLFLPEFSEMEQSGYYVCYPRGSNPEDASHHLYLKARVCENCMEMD
Sequence of recombinant cynomolgus monkey CD3ε/δ heterodimer (cynomolgus monkey) (Q95LI8 22-105, stated change not applied, chain 2 of 2, further chain): as the sequence (P04234 22-105, stated change not applied, chain 2 of 2, further chain) above, with I5V, N15K, I20V, S32T, D33N, I34N, T64A, S74N, V83L counted along it

Q: B1 was tested. Which Absorbance (450 nm) did it give?
A: 0.071

Q: For B2, which Absorbance (450 nm) is on record?
A: 0.086

Q: B3 was tested. Which Absorbance (450 nm) did it give?
A: 0.075

Q: Which Absorbance (450 nm) does the source give for B4 here?
A: 0.095

Q: With B5 as the binder, how does the Absorbance (450 nm) read?
A: 0.11

Q: B6 was tested. Which Absorbance (450 nm) did it give?
A: 0.067

Q: With B7 as the binder, how does the Absorbance (450 nm) read?
A: 0.099

Q: Which Absorbance (450 nm) does the source give for B8 here?
A: 0.065

Q: For B9, which Absorbance (450 nm) is on record?
A: 0.261

Q: B10 was tested. Which Absorbance (450 nm) did it give?
A: 0.074

Q: With B11 as the binder, how does the Absorbance (450 nm) read?
A: 0.134

Q: Which Absorbance (450 nm) does the source give for B12 here?
A: 0.072

Q: For B13, which Absorbance (450 nm) is on record?
A: 0.078

Q: For B14, which Absorbance (450 nm) is on record?
A: 0.098

Q: Which Absorbance (450 nm) does the source give for B15 here?
A: 0.179

Q: How did the Absorbance (450 nm) turn out when B16 was run?
A: 0.065

Q: How did the Absorbance (450 nm) turn out when B17 was run?
A: 0.13

Q: For B18, which Absorbance (450 nm) is on record?
A: 0.078

Q: With B19 as the binder, how does the Absorbance (450 nm) read?
A: 0.065

Q: Which Absorbance (450 nm) does the source give for B20 here?
A: 0.083

Q: For B21, which Absorbance (450 nm) is on record?
A: 0.064

Q: Which Absorbance (450 nm) does the source give for B22 here?
A: 0.141

Q: With B23 as the binder, how does the Absorbance (450 nm) read?
A: 0.076

Q: B24 was tested. Which Absorbance (450 nm) did it give?
A: 0.098

Q: B25 was tested. Which Absorbance (450 nm) did it give?
A: 0.114

Q: How did the Absorbance (450 nm) turn out when B26 was run?
A: 0.101

Q: For B27, which Absorbance (450 nm) is on record?
A: 0.073

Q: With B28 as the binder, how does the Absorbance (450 nm) read?
A: 0.128

Q: With B29 as the binder, how does the Absorbance (450 nm) read?
A: 0.075

Q: With B30 as the binder, how does the Absorbance (450 nm) read?
A: 0.068

Q: For B31, which Absorbance (450 nm) is on record?
A: 0.113

Q: With B32 as the binder, how does the Absorbance (450 nm) read?
A: 0.114

Q: How did the Absorbance (450 nm) turn out when B33 was run?
A: 0.084

Q: With B34 as the binder, how does the Absorbance (450 nm) read?
A: 0.099

Q: How did the Absorbance (450 nm) turn out when B35 was run?
A: 0.089

Q: With B36 as the binder, how does the Absorbance (450 nm) read?
A: 0.07

Q: How did the Absorbance (450 nm) turn out when B37 was run?
A: 0.115

Q: Which Absorbance (450 nm) does the source give for B38 here?
A: 0.108

Q: How did the Absorbance (450 nm) turn out when B39 was run?
A: 0.532

Q: How did the Absorbance (450 nm) turn out when B40 was run?
A: 0.113

Q: Which Absorbance (450 nm) does the source give for B41 here?
A: 0.067
